This note sets out measurements from publication PMC6731595, “The anti-parasitic agent suramin and several of its analogues are inhibitors of the DNA binding protein Mcm10” (Open Biology, 2019).

{FAM} = 6-carboxyfluorescein (6FAM) label

The target in data set [1] is T1, hMcm10-ID (Homo sapiens, UniProt Q7L590).
T1 construct: hMcm10-ID (residues 237 to 436) were expressed in E. coli strain BL21(DE3); 6xHis (HRV 3C site) (N, cleaved yes); made in house; host or cells: E. coli BL21(DE3)
T1 sequence (Q7L590 237-436): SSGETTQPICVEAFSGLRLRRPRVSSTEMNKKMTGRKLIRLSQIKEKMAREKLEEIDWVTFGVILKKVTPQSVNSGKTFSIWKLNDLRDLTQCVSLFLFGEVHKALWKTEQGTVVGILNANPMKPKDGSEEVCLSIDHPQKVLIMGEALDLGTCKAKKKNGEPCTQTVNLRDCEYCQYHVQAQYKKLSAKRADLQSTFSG
The experiment in a line: FP saturation binding of probe to hMcm10-ID. Particulars: probe 12.5 nM, mean ± SEM, n = 3. How it is done:
(§1) The LOPAC pilot screen identified the sulfhydryl reagent 4-chloromercuribenzoic acid as an inhibitor in the fluorescence polarization (FP) assay. As there was no known Mcm10 inhibitor, 4-chloromercuribenzoic acid (30 μM) was used as a positive control on initial screening plates. Following the discovery of suramin as a Mcm10 inhibitor, suramin (7 μM) was used as a positive control on subsequent screening plates. To confirm activity, screening hits were tested in dose response experiments (8 concentrations in duplicate) using xMcm10-ID. Similar dose response experiments were conducted with suramin and its analogs to confirm activity for hMcm10-ID (1 μM) and xMcm10-FL (2 μM) and to determine selectivity relative to RPA70AB (0.4 μM). […] FP was measured in mP units, and ∆mP values for each well were calculated as the difference between the measured mP and the average of the “probe only” controls. […] The parallel and perpendicular mP values were also used to calculate total fluorescence intensity (TFI) determined by the sum of parallel mP + (2 x perpendicular mP). TFI was used to detect fluorescence interference by compounds [1]. […] IC50 values were calculated using the four parameter logistic equation in Prism 6.0 (GraphPad). […] KD values were calculated using the one site or two site binding equations in Prism 6.0 (GraphPad). […]

The next data set addresses T2, human RPA70AB (Homo sapiens, UniProt P27694).
T2 construct: recombinant human RPA70AB (181-422) in a pSV281 vector; 6xHis (TEV site) (N, cleaved yes); made in house; host or cells: Escherichia coli BL21(DE3)
The experiment in a line: FP saturation binding of probe to RPA70AB. Particulars: probe 12.5 nM, mean ± SEM, n = 3, listed as 5′-6FAM DNA probe. How it is done:
as §1

For a further data set, the target named is T3, xMcm10-FL (Xenopus laevis, UniProt Q5EAW4 1-860).
T3 sequence: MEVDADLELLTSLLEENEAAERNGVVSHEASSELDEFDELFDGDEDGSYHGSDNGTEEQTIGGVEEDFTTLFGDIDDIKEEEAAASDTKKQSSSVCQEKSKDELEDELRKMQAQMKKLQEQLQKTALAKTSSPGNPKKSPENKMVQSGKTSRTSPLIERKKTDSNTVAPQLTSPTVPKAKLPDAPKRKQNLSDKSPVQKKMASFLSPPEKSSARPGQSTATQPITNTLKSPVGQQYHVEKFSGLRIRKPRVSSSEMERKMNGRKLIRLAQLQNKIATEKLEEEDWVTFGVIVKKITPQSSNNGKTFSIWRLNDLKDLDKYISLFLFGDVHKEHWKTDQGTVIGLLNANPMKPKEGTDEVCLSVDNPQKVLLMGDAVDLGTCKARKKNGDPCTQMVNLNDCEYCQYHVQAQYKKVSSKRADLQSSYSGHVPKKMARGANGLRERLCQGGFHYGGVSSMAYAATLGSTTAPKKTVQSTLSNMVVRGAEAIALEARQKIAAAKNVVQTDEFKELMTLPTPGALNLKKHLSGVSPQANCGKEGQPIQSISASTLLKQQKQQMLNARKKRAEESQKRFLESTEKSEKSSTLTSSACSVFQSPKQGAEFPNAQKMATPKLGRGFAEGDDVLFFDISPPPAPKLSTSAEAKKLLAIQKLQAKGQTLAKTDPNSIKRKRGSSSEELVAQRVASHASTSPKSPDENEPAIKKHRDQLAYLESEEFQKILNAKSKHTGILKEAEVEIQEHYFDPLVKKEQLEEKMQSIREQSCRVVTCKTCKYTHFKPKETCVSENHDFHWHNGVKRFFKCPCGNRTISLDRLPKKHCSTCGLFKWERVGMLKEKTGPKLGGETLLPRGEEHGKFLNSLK
Put plainly: fluorescence polarization; FP: 20 mM Tris-HCl, 100 mM NaCl, 5% glycerol, 0.01% Triton, pH 7.5, RT 60 min, 12.5 nM probe (0.1% DMSO in HTS). Particulars: protein: recombinant; label: 5'-6-FAM; single strand. In general terms: Polarisation of emitted light reports the rotation of a fluorescent probe.

In a further data set the target is T4, xMcm10-ID (Xenopus laevis, UniProt Q5EAW4 229-427).
T4 sequence: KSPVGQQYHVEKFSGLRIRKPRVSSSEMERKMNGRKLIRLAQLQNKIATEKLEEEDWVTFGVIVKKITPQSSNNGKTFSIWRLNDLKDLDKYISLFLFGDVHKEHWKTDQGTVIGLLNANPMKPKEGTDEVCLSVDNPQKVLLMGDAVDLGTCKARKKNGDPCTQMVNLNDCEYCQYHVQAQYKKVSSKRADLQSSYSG
The description is as above. Particulars: protein: recombinant; label: 5'-6-FAM; single strand.

The target of data set [2] is T5, hMcm10-ID (Homo sapiens, UniProt Q7L590 237-436).
T5 sequence: T1 sequence (Q7L590 237-436)
Described as above. Conditions: protein: recombinant; label: 5'-6-FAM; single strand.

The target in the next data set is RPA70AB (Homo sapiens, UniProt P27694 181-422). Described as above. Particulars: protein: recombinant; label: 5'-6-FAM; single strand.
RPA70AB, sequence (P27694 181-422): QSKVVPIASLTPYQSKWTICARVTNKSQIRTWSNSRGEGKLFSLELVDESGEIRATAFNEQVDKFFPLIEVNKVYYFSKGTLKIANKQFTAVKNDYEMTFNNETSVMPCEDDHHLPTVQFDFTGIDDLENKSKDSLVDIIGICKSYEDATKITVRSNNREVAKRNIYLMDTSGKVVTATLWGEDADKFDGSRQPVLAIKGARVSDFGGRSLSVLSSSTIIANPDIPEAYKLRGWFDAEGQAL

T2 sequence (P27694 181-422): as above

“5′-6-FAM-ATGGTAGGCA (DNA, 5' {FAM}, backbone and methylation of C not given here) [5’-6-FAM 10-mer ssDNA, 5′-6-carboxyfluorescein 10-mer DNA FP probe]”: the “KD of FP probe for hMcm10-ID” value with hMcm10-ID [1] is recorded as “low micromolar affinity”. In the data set with human RPA70AB, binding was characterised by a dissociation constant (Kd) of 400 nM.

As for ATGGTAGGCA (ssDNA) [5'-6FAM 10-mer], the Kd (as a rule, the free concentration of one partner at which half of the binding sites on the other are occupied at equilibrium, for simple one-to-one binding) amounted to 1100 nM with xMcm10-FL, 1300 nM with xMcm10-ID, 2290 nM in the data set with hMcm10-ID [2] and 370 nM in the data set with RPA70AB.
